The values that follow come from patent US20190352367A1 (CLEVELAND CLINIC FOUNDATION, published 2019).

For assay [1], the target named is Connexin 26 (Cx26), endogenous or overexpressed in breast cell lysates (UniProt P29033 1-226). In words: reciprocal co-immunoprecipitation (anti-Cx26, anti-FAK) from bulk MCF7 and MCF10A lysates, western blot; non-immune IgG as control.
Assay [2] addresses T1, Focal Adhesion Kinase (FAK), SPR ligand (UniProt Q05397 1-1052, limits assumed).
T1 construct: the FAK preparation is not described
The assay can be described thus: SPR, peptide as analyte, FAK as ligand. For orientation: SPR reads the build-up and loss of mass on a sensor chip optically.

For assay [3], the target named is T2, Nanog transcription factor (NANOG), SPR ligand (UniProt Q9H9S0 1-305, limits assumed).
T2 construct: the NANOG preparation is not described
In words: SPR, peptide as analyte, NANOG as ligand.

T2 sequence (Q9H9S0 whole entry): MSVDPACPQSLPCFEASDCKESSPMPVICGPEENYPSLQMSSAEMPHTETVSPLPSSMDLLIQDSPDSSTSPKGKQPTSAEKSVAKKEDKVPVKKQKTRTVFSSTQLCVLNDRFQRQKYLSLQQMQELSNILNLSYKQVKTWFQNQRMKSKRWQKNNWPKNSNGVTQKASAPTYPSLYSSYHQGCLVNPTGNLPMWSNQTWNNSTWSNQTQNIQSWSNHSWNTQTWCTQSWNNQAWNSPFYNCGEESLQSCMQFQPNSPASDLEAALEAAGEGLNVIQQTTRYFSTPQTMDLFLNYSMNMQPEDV

B1: Focal adhesion kinase (FAK), endogenous in breast cell lysates (enzyme)
chain: AAAYLDPNLNHTPNSSTKTHLGTGMERSPGAMERVLKVFHYFESNSEPTTWASIIRHGDATDVRGIIQKIVDSHKVKHVACYGFRLSHLRSEEVHWLHVDMGVSSVREKYELAHPPEEWKYELRIRYLPKGFLNQFTEDKPTLNFFYQQVKSDYMLEIADQVDQEIALKLGCLEIRRSYWEMRGNALEKKSNYEVLEKDVGLKRFFPKSLLDSVKAKTLRKLIQQTFRQFANLNREESILKFFEILSPVYRFDKECFKCALGSSWIISVELAIGPEEGISYLTDKGCNPTHLADFTQVQTIQYSNSEDKDRKGMLQLKIAGAPEPLTVTAPSLTIAENMADLIDGYCRLVNGTSQSFIIRPQKEGERALPSIPKLANSEKQGMRTHAVSVSETDDYAEIIDEEDTYTMPSTRDYEIQRERIELGRCIGEGQFGDVHQGIYMSPENPALAVAIKTCKNCTSDSVREKFLQEALTMRQFDHPHIVKLIGVITENPVWIIMELCTLGELRSFLQVRKYSLDLASLILYAYQLSTALAYLESKRFVHRDIAARNVLVSSNDCVKLGDFGLSRYMEDSTYYKASKGKLPIKWMAPESINFRRFTSASDVWMFGVCMWEILMHGVKPFQGVKNNDVIGRIENGERLPMPPNCPPTLYSLMTKCWAYDPSRRPRFTELKAQLSTILEEEKAQQEERMRMESRRQATVSWDSGGSDEAPPKPSRPGYPSPRSSEGFYPSPQHMVQTNHYQVSGYPGSHGITAMAGSIYPGQASLLDQTDSWNHRPQEIAMWQPNVEDSTVLDLRGIGQVLPTHLMEERLIRQQQEMEEDQRWLEKEERFLKPDVRLSRGSIDREDGSLQGPIGNQHIYQPVGKPDPAAPPKKPPRPGAPGHLGSLASLSSPADSYNEGVKLQPQEISPPPTANLDRSNDKVYENVTGLVKAVIEMSSKIQPAPPEEYVPMVKEVGLALRTLLATVDETIPLLPASTHREIEMAQKLLNSDLGELINKMKLAQQYVMTSLQQEYKKQMLTAAHALAVDAKNLLDVIDQARLKMLGQTRPH
notes: Protein from cell lysates in co-immunoprecipitation; also called total FAK
As for B1, the binding result in assay [1] is recorded as “binds”. As to RYCSGKSKKPV (also called cytoplasmic tail of Cx26) [Cx26 blocking peptide 5 (C-terminus)], the Kd in assay [2] was determined as 14.9 µM; in assay [3] it was 0.17 µM.

The term Kd denotes a measure of binding affinity in units of concentration.
